Self-cleavage data for 167 variants are collected here from the RNAGym collection of RNA variant scans (doi:10.7554/elife.80360).

The labels stand for the following.
B1: Hairpin Ribozyme (parent)
chain: GUCCUCUUUCACGUGCGCGUGAAAGAGAGAAGUGAACCAGAGAAACACACGUUGUGGUAUAUUACCUGGUA

This data set covers variants of B1. The data set can be described thus: self-cleavage, relative activity (ratio to wild type); higher = more cleavage; co-transcriptional.
As to U2G U60G, the self-cleavage is 0.278.

For the variant U2A G34C, the self-cleavage came out at 0.501.

Regarding U2A G34A, the self-cleavage was 0.319.

As for U2A G25A, the self-cleavage is 0.259.

For the variant C3G A11U, the self-cleavage was determined as 0.28.

Turning to U2A C65G, the self-cleavage was determined as 0.146.

Regarding C3A U63C, the self-cleavage was 0.154.

With C3A U63G, the self-cleavage was 0.174.

C3G G32U: the self-cleavage was found to be 0.141.

With C3G G32C, the self-cleavage came out at 0.0586.

For U2C G25U, the self-cleavage worked out at 0.134.

As for U2C G25A, the self-cleavage was found to be 0.195.

As for U2A G27A, the self-cleavage stood at 0.127.

Take U2A G27C: the self-cleavage was 0.108.

For C3A A61C, the self-cleavage worked out at 0.16.

For the variant U2C A49U, the self-cleavage was found to be 0.141.

On to U2G G51U, for which the self-cleavage worked out at 0.389.

Turning to U2G G51A, the self-cleavage is 0.306.

U2A C37A: the self-cleavage worked out at 0.161.

With U2C U63C, the self-cleavage was 0.109.

Consider U2C U63G, for which the self-cleavage worked out at 0.

Regarding C3G C10U, the self-cleavage was 0.213.

In the case of C3A C65A, the self-cleavage amounted to 0.662.

Turning to U2C A41C, the self-cleavage came out at 0.0362.

In the case of C3A U52C, the self-cleavage was 0.619.

In the case of U2C G56U, the self-cleavage is 0.178.

For U2A A39G, the self-cleavage is 0.0775.

On to U2A A39C, for which the self-cleavage came to 0.133.

Regarding U2G A26G, the self-cleavage was found to be 0.277.

Consider C3A A44C, for which the self-cleavage came to 0.123.

Regarding U2G G17C, the self-cleavage worked out at 0.367.

For the variant U2C A23C, the self-cleavage stood at 0.144.

C3G A61G: the self-cleavage came out at 0.0947.

As to C3G A61U, the self-cleavage is 0.0942.

As to U2G G19U, the self-cleavage was 0.336.

For the variant U2G A24G, the self-cleavage was 0.293.

U2G A24C: the self-cleavage was 0.293.

As for U2G A24U, the self-cleavage worked out at 0.238.

Take U2G U63A: the self-cleavage was 0.149.

U2G U9C: the self-cleavage was found to be 0.231.

With U2C G21C, the self-cleavage was found to be 0.213.

Take U2C G21U: the self-cleavage was found to be 0.185.

Turning to U2A A49G, the self-cleavage worked out at 0.188.

For the variant U2C U9G, the self-cleavage amounted to 0.0171.

On to U2C U9A, for which the self-cleavage is 0.109.

In the case of U2C U9C, the self-cleavage was determined as 0.139.

U2A G19U: the self-cleavage was 0.244.

Regarding C3A U62A, the self-cleavage was determined as 0.184.

Take C3A U62G: the self-cleavage was found to be 0.101.

U2G U70C: the self-cleavage was 0.12.

As to U2G U70G, the self-cleavage was found to be 0.244.

For the variant U2A U5A, the self-cleavage turned out to be 0.137.

On to U2A U5C, for which the self-cleavage turned out to be 0.137.

Turning to C3A G21A, the self-cleavage was 0.567.

In the case of C3A G21U, the self-cleavage was found to be 0.655.

As to U2A C48G, the self-cleavage turned out to be 0.162.

U2A C48U: the self-cleavage stood at 0.104.

As to C3G A36U, the self-cleavage amounted to 0.174.

For C3G C38U, the self-cleavage was 0.133.

As to C3G C38G, the self-cleavage is 0.0857.

With U2G A22C, the self-cleavage was 0.354.

For the variant U2G A22G, the self-cleavage came to 0.264.

Consider U2G G42A, for which the self-cleavage was 0.0588.

For U2C A24G, the self-cleavage stood at 0.154.

Consider C3G G40U, for which the self-cleavage was found to be 0.0655.

In the case of C3G G40C, the self-cleavage turned out to be 0.147.

Take C3G G40A: the self-cleavage turned out to be 0.0852.

Regarding C3G A31C, the self-cleavage was determined as 0.0694.

In the case of C3G A31G, the self-cleavage came to 0.0813.

With C3G A31U, the self-cleavage was found to be 0.057.

On to U2G C3U, for which the self-cleavage came to 0.181.

In the case of C3A C48A, the self-cleavage was determined as 0.152.

U2C G32A: the self-cleavage is 0.138.

For the variant U2C G32C, the self-cleavage was determined as 0.174.

As to U2C A36C, the self-cleavage was found to be 0.17.

On to U2C A36U, for which the self-cleavage amounted to 0.207.

For C3G G17U, the self-cleavage came out at 0.365.

For the variant U2A C16G, the self-cleavage stood at 0.156.

Turning to U2A C18U, the self-cleavage worked out at 0.314.

In the case of C3A U5C, the self-cleavage was found to be 0.247.

With C3A U5G, the self-cleavage was determined as 0.117.

Take U2C G13C: the self-cleavage turned out to be 0.121.

As for U2C G13U, the self-cleavage is 0.121.

Consider C3G G13U, for which the self-cleavage stood at 0.259.

Turning to C3A U7A, the self-cleavage was 0.822.

As for C3A U7G, the self-cleavage is 0.703.

As for U2C U14C, the self-cleavage was 0.359.

Consider C3G G15A, for which the self-cleavage was found to be 0.281.

As for U2G G29A, the self-cleavage is 0.168.

In the case of C3A U8G, the self-cleavage was determined as 0.541.

For the variant U2G A23U, the self-cleavage was 0.265.

Consider U2C A43C, for which the self-cleavage was 0.0996.

For the variant U2C A43U, the self-cleavage is 0.177.

For the variant U2G U53C, the self-cleavage was determined as 0.575.

As to U2G A64U, the self-cleavage is 0.0768.

Consider U2C A64G, for which the self-cleavage is 0.123.

Turning to U2A U14G, the self-cleavage was determined as 0.235.

For U2A U14A, the self-cleavage was 0.174.

Turning to C3A G13A, the self-cleavage came to 0.628.

On to U2C C38G, for which the self-cleavage was determined as 0.157.

For U2G G69C, the self-cleavage was determined as 0.0755.

As to U2C G19U, the self-cleavage is 0.161.

For the variant U2C A22C, the self-cleavage was found to be 0.161.

Consider U2G A44G, for which the self-cleavage stood at 0.0352.

As to U2A A71G, the self-cleavage stood at 0.405.

As for U2A C10G, the self-cleavage was 0.238.

Consider U2A C10U, for which the self-cleavage amounted to 0.208.

As for U2A C10A, the self-cleavage worked out at 0.132.

On to U2A G68C, for which the self-cleavage was 0.154.

Regarding C3A C38G, the self-cleavage worked out at 0.156.

U2C G57C: the self-cleavage worked out at 0.242.

Regarding U2G G54A, the self-cleavage was determined as 0.114.

For C3A A23C, the self-cleavage was 0.484.

As to C3A A23U, the self-cleavage turned out to be 0.619.

For C3A C16U, the self-cleavage amounted to 0.769.

C3A C16G: the self-cleavage was found to be 0.587.

As for U2C U53G, the self-cleavage was 0.0768.

Turning to U2C U53C, the self-cleavage worked out at 0.0859.

Consider C3G C18U, for which the self-cleavage is 0.341.

Consider C3G C18G, for which the self-cleavage turned out to be 0.34.

On to U2C G54C, for which the self-cleavage was 0.127.

As to C3A G68A, the self-cleavage was 0.172.

As to C3A G68C, the self-cleavage worked out at 0.211.

Turning to U2C U62C, the self-cleavage was found to be 0.203.

Regarding U2G C4U, the self-cleavage is 0.15.

For the variant U2G C4A, the self-cleavage is 0.242.

On to C3G G29A, for which the self-cleavage amounted to 0.148.

As to C3G G34C, the self-cleavage amounted to 0.911.

On to U2G G21A, for which the self-cleavage came out at 0.265.

Consider C3G A24G, for which the self-cleavage worked out at 0.294.

C3G A24C: the self-cleavage turned out to be 0.238.

In the case of C3G A24U, the self-cleavage amounted to 0.248.

In the case of C3G C66U, the self-cleavage came to 0.251.

For the variant C3A G19C, the self-cleavage was found to be 0.535.

With C3A G19U, the self-cleavage turned out to be 0.582.

With C3G A30U, the self-cleavage worked out at 0.118.

Turning to C3G A30C, the self-cleavage came to 0.0439.

With U2C U8G, the self-cleavage worked out at 0.118.

On to U2C U8A, for which the self-cleavage was determined as 0.191.

Turning to C3A C10A, the self-cleavage was 0.461.

For the variant C3G G25U, the self-cleavage is 0.138.

On to C3G G25A, for which the self-cleavage is 0.146.

As for U2A G56U, the self-cleavage stood at 0.179.

On to U2C U60A, for which the self-cleavage was determined as 0.312.

Regarding U2C U60C, the self-cleavage worked out at 0.222.

For U2C U60G, the self-cleavage was found to be 0.226.

In the case of U2C U55G, the self-cleavage stood at 0.0647.

In the case of U2C U55C, the self-cleavage is 0.0641.

Take U2G C46A: the self-cleavage was 0.121.

Regarding U2G U55G, the self-cleavage was determined as 0.367.

On to U2G U55A, for which the self-cleavage came out at 0.195.

U2G A30G: the self-cleavage was 0.0671.

Consider U2G A59U, for which the self-cleavage worked out at 0.0332.

For U2G A59C, the self-cleavage worked out at 0.223.

For U2C U5C, the self-cleavage is 0.0555.

Take U2C U5G: the self-cleavage is 0.0932.

On to U2A G17C, for which the self-cleavage is 0.22.

U2G A35U: the self-cleavage came to 0.27.

Turning to C3A A35C, the self-cleavage was determined as 1.15.

With C3G A22C, the self-cleavage was determined as 0.227.

Take U2G C50G: the self-cleavage was 0.1.

With U2G C50U, the self-cleavage was 0.157.

Regarding C3A A11G, the self-cleavage came to 0.686.

In the case of C3A A11C, the self-cleavage is 0.618.

As for U2C G68U, the self-cleavage turned out to be 0.161.

As for U2G A71G, the self-cleavage amounted to 0.307.

For the variant U2C C48A, the self-cleavage is 0.0257.
